From article PMC12392098, “Predicting the DNA binding specificity of transcription factor mutants using family-level biophysically interpretable machine learning”
Positions count from the first letter of the chain named.

B1: CAGCTG probe (dsDNA)
DNA 1: TAGCCAATAACTTCGTCCCTCAGCTGCATATAAGGAAGATCTAACCACCAATTTGG
DNA 2: CCAAATTGGTGGTTAGATCTTCCTTATATGCAGCTGAGGGACGAAGTTATTGGCTA
B2: CACGTG probe (dsDNA)
DNA 1: B1 DNA 1 with G23C, C24G
DNA 2: B1 DNA 2 with G33C, C34G

Tests used:
Settings in all cases: protein: recombinant; tags: N-terminal 6xHis; mScarlet fusion; chain copies: 2; label: 32P (SRI primer strand); blunt
ASCL2 DBD R5K = ASCL2 DBD R5K (human, UniProt Q99929 50-102, R55K); experiment: EMSA; preferred over CACGTG probe; 32P EMSA: ~50 nM probe, 0.5/1/2 uM protein, 30 min, reagents as in Feng et al., gel at 4 C; fluorescent EMSA: 5x buffer (50 mM Tris pH 7.5, 250 mM NaCl, 5 mM MgCl2, 20% glycerol, 2.5 mM DTT, 2.5 mM EDTA, 250 ug/ml poly(dI-dC), 1 mg/ml BSA) used at 1x plus half volume protein dialysis buffer (20 mM HEPES pH 7.9, 200 mM NaCl, 10% glycerol, 2 mM MgCl2), gel 0.5x TBE at 4 C
ASCL2 DBD V13R = ASCL2 DBD V13R (human, UniProt Q99929 50-102, V63R); experiment: EMSA; preferred over CAGCTG probe; 32P EMSA: ~50 nM probe, 0.5/1/2 uM protein, 30 min, reagents as in Feng et al., gel at 4 C; fluorescent EMSA: 5x buffer (50 mM Tris pH 7.5, 250 mM NaCl, 5 mM MgCl2, 20% glycerol, 2.5 mM DTT, 2.5 mM EDTA, 250 ug/ml poly(dI-dC), 1 mg/ml BSA) used at 1x plus half volume protein dialysis buffer (20 mM HEPES pH 7.9, 200 mM NaCl, 10% glycerol, 2 mM MgCl2), gel 0.5x TBE at 4 C
ASCL2 DBD R5K+V13R = ASCL2 DBD R5K+V13R (human, UniProt Q99929 50-102, R55K;V63R); experiment: as above
ASCL2 DBD R5K+V13R, sequence (Q99929 50-102 R55K/V63R): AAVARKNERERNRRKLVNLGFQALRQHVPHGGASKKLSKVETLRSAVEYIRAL

ASCL2 DBD R5K, sequence (Q99929 50-102 R55K): as the sequence (Q99929 50-102 R55K/V63R) above, with R14V counted along it
ASCL2 DBD V13R, sequence (Q99929 50-102 V63R): as the sequence (Q99929 50-102 R55K/V63R) above, with K6R counted along it

Row | Binder | binding result (ASCL2 DBD R5K) | binding result (ASCL2 DBD V13R) | binding result (ASCL2 DBD R5K+V13R)
1 | B1 | binds |  | 
2 | B2 |  | binds | binds
